Measurements from the supplement of paper PMC5949888.

Test system: Saccharomyces cerevisiae PS128 hsf1 delta, HSF1(1-493) fusion
Experiment: growth estimate (transactivation domain function in HSF1 fusion, heat-shock survival) (a.u. (slope of normalised read count over time)); higher = stronger growth at 37°C, i.e. more transactivation activity
Settings: library: design library
Outline: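 Designed transactivation-domain oligos were fused to truncated yeast HSF1 (amino acids 1–493) and expressed in an hsf1-deleted yeast strain. Cells were replica-plated onto –trp 5-FOA plates and incubated at 30°C or 37°C for 0, 2, 4, 6 and 8 days. Inserts were PCR-amplified and Illumina MiSeq-sequenced as six barcoded replicates from one experiment. Growth estimate is the slope of a robust linear fit over time of read counts normalised to sample totals and starting count.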

Sequence | growth estimate
VADDIWKELLSEDL | 3.97
VADDIWPELLSEDL | 0.612
VADDIWRELLSEDL | 7.56
VADDKWEELLSEDL | -0.236
VADDPWEELLSEDL | -0.214
VADDRWEELLSEDL | < -0.25
VADGIWEELLSEDL | -0.0444
VADKIWEELLSEDL | -0.0109
VADPIWEELLSEDL | 0.903
VADRIWEELLSEDL | -0.176
VAGDIWEELLSEDL | 0.447
VAKDIWEELLSEDL | 6.26
VAPDIWEELLSEDL | 3.05
VARDIWEELLSEDL | 2.59
VGDDIWEELLSEDL | 1.59
VKDDIWEELLSEDL | -0.23
VRDDIWEELLSEDL | 0.609
